Experimental data as given in US12065471B2, “B*44 restricted peptides for use in immunotherapy against cancers and related methods” (Immatics Biotechnologies GmbH, priority 2018, dated 2024).

Biological target: HLA-B*44:05 (Homo sapiens, UniProt P01889, A223V/A65T/A93T/A95T/D201E/D98Y/E176V/E187L/E204Q/E69K/G107R/H137Y/K202T/L105A/L119I/N104T/N87E/Q56L/Q94N/R106L/R155S/R180D/S101N/S121R/S35A/S48T/T118I/V36M/W191S/Y91S)
Experiment: MHC binding assay (UV-ligand exchange, β2m ELISA, peptide exchange yield)
Conditions: binding to HLA-B*44:05
In short: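 Peptide–HLA complexes formed by UV-ligand exchange of a UV-cleavable peptide for the test peptide. Exchange yield measured by β2m ELISA: complexes diluted 100-fold and captured on streptavidin, detected with HRP anti-β2m and TMB, read at 450 nm. Quantified against refolded HLA-A*02:01/MLA-001 monomer standards, 15-500 ng/ml.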

Peptide exchange (MHC class I binding score, peptide exchange yield) | Substance
+++ (>50 = +++) | 386 (EESDYITHY; listed as Homo sapiens) [compound 386]
+++ (>50 = +++) | 387 (GEVQENYKL; listed as Homo sapiens) [compound 387]
+++ (>50 = +++) | 388 (VEIVTIPSL; listed as Homo sapiens) [compound 388]
++ (>20% = ++) | 389 (DEQRRQNVAY; listed as Homo sapiens) [compound 389]
++++ (>75% = ++++) | 390 (GEYNKHAQLW; listed as Homo sapiens) [compound 390]
+++ (>50 = +++) | 391 (TESIGAQIY; listed as Homo sapiens) [compound 391]
+++ (>50 = +++) | 392 (TEVSVLLLTF; listed as Homo sapiens) [compound 392]
+++ (>50 = +++) | 393 (SETILAVGL; listed as Homo sapiens) [compound 393]
+++ (>50 = +++) | 394 (SEILRVTLY; listed as Homo sapiens) [compound 394]
++++ (>75% = ++++) | 395 (AEDFVWAQW; listed as Homo sapiens) [compound 395]
++ (>20% = ++) | 396 (MELLFLDTF; listed as Homo sapiens) [compound 396]
+++ (>50 = +++) | 397 (EECGKAFSVF; listed as Homo sapiens) [compound 397]
+ (>10% = +) | 398 (AEIIRYIF; listed as Homo sapiens) [compound 398]
++ (>20% = ++) | 399 (IEQADWPEI; listed as Homo sapiens) [compound 399]
++++ (>75% = ++++) | 400 (TELGLFGVW; listed as Homo sapiens) [compound 400]
++ (>20% = ++) | 401 (VENIFHNF; listed as Homo sapiens) [compound 401]
+++ (>50 = +++) | 402 (IETSSEYFNF; listed as Homo sapiens) [compound 402]
++++ (>75% = ++++) | 403 (QESVHVASY; listed as Homo sapiens) [compound 403]
++++ (>75% = ++++) | 404 (AEREQVIKL; listed as Homo sapiens) [compound 404]
++++ (>75% = ++++) | 405 (YEHAFNSIVW; listed as Homo sapiens) [compound 405]
+++ (>50 = +++) | 406 (GETVVLKNM; listed as Homo sapiens) [compound 406]
+++ (>50 = +++) | 407 (MEFQNTQSY; listed as Homo sapiens) [compound 407]
+++ (>50 = +++) | 409 (QEAKPRATW; listed as Homo sapiens) [compound 409]

Peptide exchange (MHC class I binding score, peptide exchange yield) | Substance
+++ (>50 = +++) | 410 (RELEEEFYSL; listed as Homo sapiens) [compound 410]
+++ (>50 = +++) | 411 (AERDLNVTI; listed as Homo sapiens) [compound 411]
+++ (>50 = +++) | 412 (EESFDSKFY; listed as Homo sapiens) [compound 412]
+++ (>50 = +++) | 413 (TELEPGLTY; listed as Homo sapiens) [compound 413]
++ (>20% = ++) | 414 (AEGYLDLDGI; listed as Homo sapiens) [compound 414]
+++ (>50 = +++) | 415 (EEAGFPLAY; listed as Homo sapiens) [compound 415]
+++ (>50 = +++) | 416 (DELMRKESQW; listed as Homo sapiens) [compound 416]
++++ (>75% = ++++) | 417 (EESFRCLPEW; listed as Homo sapiens) [compound 417]
+++ (>50 = +++) | 418 (GEPRKLLTQDW; listed as Homo sapiens) [compound 418]
+++ (>50 = +++) | 419 (SELSLLSLY; listed as Homo sapiens) [compound 419]
+++ (>50 = +++) | 423 (KEAINLLKNY; listed as Homo sapiens) [compound 423]
+++ (>50 = +++) | 424 (EEHVYESIIRW; listed as Homo sapiens) [compound 424]
+++ (>50 = +++) | 425 (KEVDPASNTY; listed as Homo sapiens) [compound 425]
+++ (>50 = +++) | 426 (AESLFREAL; listed as Homo sapiens) [compound 426]
+++ (>50 = +++) | 427 (AEMLGSVVGNW; listed as Homo sapiens) [compound 427]
+++ (>50 = +++) | 428 (AEEKAAVTSL; listed as Homo sapiens) [compound 428]
++ (>20% = ++) | 429 (RETEDYSKQAL; listed as Homo sapiens) [compound 429]
++++ (>75% = ++++) | 430 (RELARVVTL; listed as Homo sapiens) [compound 430]
++++ (>75% = ++++) | 431 (QELLDFTNW; listed as Homo sapiens) [compound 431]
++++ (>75% = ++++) | 432 (TEENGFWYL; listed as Homo sapiens) [compound 432]
+++ (>50 = +++) | 433 (AEEGPSVPKIY; listed as Homo sapiens) [compound 433]
+++ (>50 = +++) | 434 (AEQQQQQMY; listed as Homo sapiens) [compound 434]
+++ (>50 = +++) | 435 (FETEQALRL; listed as Homo sapiens) [compound 435]

Peptide exchange (MHC class I binding score, peptide exchange yield) | Substance
+++ (>50 = +++) | 436 (AEADLSYTWDF; listed as Homo sapiens) [compound 436]
+++ (>50 = +++) | 437 (HEDPSGSLHL; listed as Homo sapiens) [compound 437]
+++ (>50 = +++) | 438 (AELDSKILAL; listed as Homo sapiens) [compound 438]
+++ (>50 = +++) | 439 (VEVGDRTDW; listed as Homo sapiens) [compound 439]
++ (>20% = ++) | 440 (QEVAQVASA; listed as Homo sapiens) [compound 440]
++++ (>75% = ++++) | 441 (QEVAQVASAIL; listed as Homo sapiens) [compound 441]
+++ (>50 = +++) | 442 (KESDAGKYY; listed as Homo sapiens) [compound 442]
+++ (>50 = +++) | 443 (EEYAGQITL; listed as Homo sapiens) [compound 443]
+++ (>50 = +++) | 444 (SESALQTVI; listed as Homo sapiens) [compound 444]
+++ (>50 = +++) | 445 (QEVGEITNL; listed as Homo sapiens) [compound 445]
+++ (>50 = +++) | 446 (AENIKKFLY; listed as Homo sapiens) [compound 446]
+++ (>50 = +++) | 447 (KEFGLDSVEL; listed as Homo sapiens) [compound 447]
+++ (>50 = +++) | 448 (ALSPVPSHW; listed as Homo sapiens) [compound 448]
+++ (>50 = +++) | 449 (RENDFEPKF; listed as Homo sapiens) [compound 449]
+++ (>50 = +++) | 450 (REIENGNSF; listed as Homo sapiens) [compound 450]
+++ (>50 = +++) | 451 (REYEDGPLSL; listed as Homo sapiens) [compound 451]
+++ (>50 = +++) | 452 (NEVDGEYRY; listed as Homo sapiens) [compound 452]
+++ (>50 = +++) | 453 (SESKVFQLL; listed as Homo sapiens) [compound 453]
+++ (>50 = +++) | 454 (SESSSAFQF; listed as Homo sapiens) [compound 454]
++++ (>75% = ++++) | 455 (QESVHVASYYW; listed as Homo sapiens) [compound 455]
+++ (>50 = +++) | 456 (SESPIRISV; listed as Homo sapiens) [compound 456]
